From patent US20110076723A1, “ANTIBODY-PEPTIDE FUSED SYNERGIBODY” (SAMSUNG ELECTRONICS CO., LTD., priority 2008, published 2011)

Assays:
[1] = target: T1, recombinant VEGFR-2 protein (water soluble extracellular site of human VEGFR-2 with Fc of human IgG1 … (human, UniProt P35968 20-764)); test: competitive ELISA; synergibody titrated with 1 nM VEGFR-2 on coated VEGF 165
T1 construct: extracellular domain; Bought; not shown: Fc of human IgG1
Method: Competitive ELISA is performed using the peptides synthesized above in Section 6A in order to assess the molecular interaction of the binders. […] Then the plate is washed five times with PBS containing 0.1% Tween-20, and blocked at room temperature for two hours with PBS containing 5% BSA. For VEGF:VEGFR-2 neutralization ELISA, each of the peptides synthesized in Section 6A above are diluted to one-fourth each time from 100 nM with PBS containing 1 nM VEGFR-2 and 1% BSA, and adjusted to 6.1 pM. 100 μl of peptide/VEGFR-2 solution is added to each well and the plate is left to react at room temperature for two hours. Subsequently, it is washed five times with PBS containing 0.1% Tween-20, mouse anti-VEGFR-2 antibodies (R&D Systems) is diluted to about 1:3,000 with PBS containing 1% BSA, and left to react at room temperature for one hour. Then 100 μl of goat anti-mouse-IgG-HRP (Pierce) diluted to about 1:10,000 with PBS containing 1% BSA is added to each well of the plate, left to react at room temperature for one hour, and washed five times with PBS containing 0.1% Tween-20. Lastly, 100 μl of TMB substrate (SIGMA) is added to each well of the plate to induce color reaction. The reaction is stopped by adding 50 μl of 5N H₂SO₄ solution, and the OD₄₅₀ value is read on a plate reader (Molecular Devices). Through the foregoing, the IC₅₀ value for the VEGF:VEGFR-2 binding capacity is obtained.
The method in Example 2, Section 6B above is used, except that, in the present example, each fused protein synergibodies are diluted from 100 nM to one-fourth each time with PBS containing 1% BSA and 1nM VEGFR-2 and adjusted to 6.1 pM for VEGF:VEGF-2 neutralization ELISA.

[2] = target: T2, recombinant hAng-2 (recombinant protein with His tag attached to human Ang-2; R&D Systems) (human, UniProt O15123 19-496); test: competitive ELISA; synergibody titrated with 1 nM hAng-2 (His) on coated hTie2-Fc
T2 construct: also called angiopoietin-2; ANGPT2
T2 sequence (looked up): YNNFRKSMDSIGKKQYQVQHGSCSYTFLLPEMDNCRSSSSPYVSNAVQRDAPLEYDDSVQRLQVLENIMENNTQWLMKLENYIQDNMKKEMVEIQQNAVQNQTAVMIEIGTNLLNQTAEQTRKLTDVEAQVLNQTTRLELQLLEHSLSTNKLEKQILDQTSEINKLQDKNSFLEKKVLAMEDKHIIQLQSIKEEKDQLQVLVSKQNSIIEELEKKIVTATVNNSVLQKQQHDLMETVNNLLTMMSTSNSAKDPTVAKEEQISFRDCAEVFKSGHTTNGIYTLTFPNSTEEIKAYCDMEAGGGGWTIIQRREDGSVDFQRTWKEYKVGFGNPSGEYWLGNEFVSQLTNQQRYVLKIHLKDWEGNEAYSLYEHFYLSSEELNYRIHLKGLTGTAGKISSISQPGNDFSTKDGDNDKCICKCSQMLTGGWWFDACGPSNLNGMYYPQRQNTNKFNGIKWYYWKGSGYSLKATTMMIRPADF
Method: (§1) A competitive ELISA is performed to assess the molecular interaction of the binders. A 96-well MaxiSorp™ flat-bottom plate (Nunc) is coated with hTie2-Fc (R&D Systems), which is a fused protein including the water-soluble extracellular portion of human Tie-2 and Fc of human IgG₁ dissolved in DMEM culture solution containing 50 μg/ml bovine serum albumin (BSA). The concentration of hTie2-Fc used as a coating material is equivalent to 75% of its maximum binding concentration with 1 nM of recombinant hAng-2 (recombinant protein with His tag attached to human Ang-2; R&D Systems). Then the plate is washed five times with Phosphate Buffer Saline (PBS) containing 0.1% Tween-20 and blocked at room temperature for two hours with PBS containing 5% BSA. Each anti-Ang-2 antibodies are diluted from 100 nM by one-fourth each time with PBS containing 1% BSA and 1 nM hAng-2 and adjusted to 6.1 pM for Ang-2:Tie-2 neutralization ELISA. 100 μl of antibody/hAng-2 solutions are placed in each corresponding well and left to react at room temperature for two hours. Then the wells are washed five times with PBS containing 0.1% Tween-20, and the anti-His antibodies (GE Healthcare) are diluted to about 1:3,000 with PBS containing 1% BSA and left to react at room temperature for one hour. Afterwards, 100 μl of goat anti-mouse-IgG-HRP (Pierce) diluted with PBS containing 1% BSA to about 1:10,000 is added to each well of the plate, left to react at room temperature for one hour, and washed with PBS containing 0.1% Tween-20 five times. Lastly, 100 μl of TMB substrate (SIGMA) is added to each well of the plate to induce color reaction, and the reaction is stopped by adding 50 μl of 5N H₂SO₄ solution. The OD₄₅₀ value is read on a plate reader (Molecular Devices).
The method described in Example 1, Section 3 above is used, except that, in the present example, each fused protein synergibodies are diluted from 100 nM to one-fourth each time with PBS containing 1% BSA and 1 nM hAng-2 and adjusted to 6.1 pM for Ang-2:Tie-2 neutralization ELISA.

[3] = target: T3, recombinant hAng-2 (Homo sapiens, UniProt O15123); test: Affinity to Ang-2 antigen by surface plasmon resonance (BIAcore T100); format: binding; details: SPR, hAng-2 on CM5 chip
T3 construct: His tag; purchased R&D Systems
T3 sequence (O15123 19-496): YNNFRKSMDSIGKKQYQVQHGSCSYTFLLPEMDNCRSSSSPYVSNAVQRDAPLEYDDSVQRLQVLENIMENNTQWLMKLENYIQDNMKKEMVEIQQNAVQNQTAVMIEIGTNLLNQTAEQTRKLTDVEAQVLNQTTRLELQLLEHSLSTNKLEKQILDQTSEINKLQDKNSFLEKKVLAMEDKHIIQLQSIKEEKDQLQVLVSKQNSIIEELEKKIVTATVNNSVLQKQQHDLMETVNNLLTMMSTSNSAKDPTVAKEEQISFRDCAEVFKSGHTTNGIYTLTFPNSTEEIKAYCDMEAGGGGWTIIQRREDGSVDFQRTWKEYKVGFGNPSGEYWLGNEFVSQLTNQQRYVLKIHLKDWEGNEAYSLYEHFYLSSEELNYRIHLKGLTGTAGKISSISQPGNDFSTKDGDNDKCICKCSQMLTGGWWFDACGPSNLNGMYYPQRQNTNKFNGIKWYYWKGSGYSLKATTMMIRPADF
Method: (§2) The SPR method using BIAcore T100 (GE Healthcare) is used to accurately measure the affinity to the Ang-2 antigens. 20 μg/ml recombinant hAng-2 (R&D Systems) is fixed on a sensor chip CM5 (GE Healthcare) using pH4.5 acetate solution and amine coupling kit (GE Healthcare). The antibodies obtained in Section 2 above are diluted to eight different concentrations down to 0.78125 nM by diluting to ½ each time starting from 100 nM. Then the antigen/antibody affinity is measured by causing the antigens to repeatedly bind and disassociate with the antibodies fixed on the sensor chip (using pH2.2 glycine-HCl solution).

[4] = target: T2, recombinant hAng-2 (recombinant protein …); test: competitive ELISA; antibody titrated with 1 nM hAng-2 (His) on coated hTie2-Fc
Method: as §1

[5] = target: T2, recombinant hAng-2 (recombinant protein …); test: SPR, BIAcore T100; hAng-2 amine-coupled on CM5, antibody 100 to 0.78125 nM
Method: as §2

[6] = target: T4, recombinant VEGFR-2 protein (water soluble extracellular site of human VEGFR-2 with Fc of human IgG1 connected thereto, R&D Systems) (human), P35968; test: competitive ELISA; peptide titrated with 1 nM VEGFR-2 on coated VEGF 165
T4 chain: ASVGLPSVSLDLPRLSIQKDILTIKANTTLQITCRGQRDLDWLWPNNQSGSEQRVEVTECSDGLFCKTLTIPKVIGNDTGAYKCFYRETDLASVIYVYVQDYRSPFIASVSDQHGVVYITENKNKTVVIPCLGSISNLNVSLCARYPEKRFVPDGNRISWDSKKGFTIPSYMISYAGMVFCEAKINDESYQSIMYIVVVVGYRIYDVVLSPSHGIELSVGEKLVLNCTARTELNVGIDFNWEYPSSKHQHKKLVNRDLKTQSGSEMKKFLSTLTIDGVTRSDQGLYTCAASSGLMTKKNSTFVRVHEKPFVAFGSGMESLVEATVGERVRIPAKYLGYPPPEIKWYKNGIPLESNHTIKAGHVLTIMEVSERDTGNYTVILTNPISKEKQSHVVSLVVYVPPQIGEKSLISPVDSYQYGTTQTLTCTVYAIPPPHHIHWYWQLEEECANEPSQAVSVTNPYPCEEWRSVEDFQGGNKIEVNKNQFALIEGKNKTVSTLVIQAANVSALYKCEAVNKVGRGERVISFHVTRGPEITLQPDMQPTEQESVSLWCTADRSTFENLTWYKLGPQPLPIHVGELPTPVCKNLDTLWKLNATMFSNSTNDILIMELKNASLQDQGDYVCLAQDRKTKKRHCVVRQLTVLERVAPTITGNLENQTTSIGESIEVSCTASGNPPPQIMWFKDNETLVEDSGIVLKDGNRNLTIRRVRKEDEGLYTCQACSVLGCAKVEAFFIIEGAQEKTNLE

B1: Syn-Ang-VEGFR-18 (other)
heavy (part 1 of 2): QVQLQQSGAELARPGASVKLSCKASGYTFTDYYINWAKQRTGQGLEWIGEIYPGSGDTYYNEKFKGKATLTADKSSSTAYMQLSSLTSEDSAVYFCARYGYKGVYFDYWGQSTTLTVSS
heavy (part 2 of 2): EAGAYWCKAWGLSPCLVT
light: ENVLTQSPAIMAASLGQKVTMTCSASSSVSSSYLHWYQQKSGASPKPLIHRTSNLASGVPARFSGSGSGTSYSLTISSVEAEDDATYYCQQWSGYPFTFGAGTKLELK
notes: Chimeric (human IgG1) SAITAng-2-4 with the peptide at the C-terminus of the heavy chain; also called SAITAng-2-4 x DTN9VEGFR-2-3; not shown: human IgG1 heavy chain constant region with Fc region, from the vector; human light chain constant region, printed as 'constant region of human IgG1'
B1 was tested, and the IC50 [1] was 1.65 nM and the IC50 [2] was 1.39 nM.

B2: SAITAng-2-2 (antibody, V domains shown)
VH: QVQLQQSGPELVKPGASVKMSCKASGYTFTDYVISWVKQRTGQGLEWIGEIYPGSGSTYYNEKFKGKASLTADKSSNTAYMQLSSLTSADSAVYFCVRSRGDYYAMDYWGQGTSVTVSS
VL: DIQMTQSPSSLSASLGGKVTITCKASQDINNYITWYQHKPGKGPRLLIHYTSTLQPGIPSRFSGSGSGRDYSFSISNLEPEDIATYYCLQYDNLLTFGGGTKLEIK
notes: Mouse monoclonal anti-Ang-2 antibody purified from hybridoma culture
With B2 the “Off Rate” value [3] was 0.0004769 s⁻¹, the “On rate” value [3] was 433200 M⁻¹ s⁻¹ and the IC50 [4] was 1.86 nM. The Kd [5] was 1.1 nM, the koff [5] was 0.000477 s⁻¹ and the kon [5] was 433000 M⁻¹ s⁻¹.

B3: SAITAng-2-3 (antibody, V domains shown)
VH: DVQLVESGGGLVQPGGSRKLSCAASGFTFSSFGMHWVRQAPEKGLEWVAYISSDSSTIYYADTVKGRFTISRDNPKNTLFLQMTSLRSEDTAMYYCAREGGYDDYYAMDYWGQGTSVTVSS
VL: DIQMTQSPASQSASLGESVTITCLASQTIGTWLAWYQQKPGKSPQLLIYAATSLADGVPSRFSGSGSGTKFSFKISSLQAEDFVSYYCQQLYSIPLTFGGGTKLEIK
notes: as for B2
In the case of B3, the “Off Rate” value [3] is reported as 0.0003023 s⁻¹, the “On rate” value [3] is reported as 501200 M⁻¹ s⁻¹ and the IC50 [4] is reported as 0.822 nM. It also gave a Kd [5] of 0.603 nM, a koff [5] of 0.000302 s⁻¹ and a kon [5] of 501000 M⁻¹ s⁻¹.

With PGSQGYCHLNMRYQWICDSE (modifications not checked) [DTN11VEGFR-2-5] the IC50 [6] was 50.7 nM.

For TGSDDLCYTFPCMHY (modifications not checked) [DTN6VEGFR-2-1], the IC50 [6] was 56.7 nM.

TGSGRMCDGSGPPTNCWFT (modifications not checked) [DTN10VEGFR-2-4] showed an IC50 [6] of 46.9 nM.
